The results in this text go back to patent US20040151724A1 (published 2004).

In this experiment the target is T1, MUC1 (UniProt P15941 24-1255, limits assumed).
T1 construct: whole, on cells; also called B16MUC1; C57MUC1
Kind of experiment: flow cytometry of Fab on C57MUC1 cells (murine + MUC1). (In general: A flow cytometer gives signals particle by particle.)

T1 sequence (P15941 24-1255 limits assumed): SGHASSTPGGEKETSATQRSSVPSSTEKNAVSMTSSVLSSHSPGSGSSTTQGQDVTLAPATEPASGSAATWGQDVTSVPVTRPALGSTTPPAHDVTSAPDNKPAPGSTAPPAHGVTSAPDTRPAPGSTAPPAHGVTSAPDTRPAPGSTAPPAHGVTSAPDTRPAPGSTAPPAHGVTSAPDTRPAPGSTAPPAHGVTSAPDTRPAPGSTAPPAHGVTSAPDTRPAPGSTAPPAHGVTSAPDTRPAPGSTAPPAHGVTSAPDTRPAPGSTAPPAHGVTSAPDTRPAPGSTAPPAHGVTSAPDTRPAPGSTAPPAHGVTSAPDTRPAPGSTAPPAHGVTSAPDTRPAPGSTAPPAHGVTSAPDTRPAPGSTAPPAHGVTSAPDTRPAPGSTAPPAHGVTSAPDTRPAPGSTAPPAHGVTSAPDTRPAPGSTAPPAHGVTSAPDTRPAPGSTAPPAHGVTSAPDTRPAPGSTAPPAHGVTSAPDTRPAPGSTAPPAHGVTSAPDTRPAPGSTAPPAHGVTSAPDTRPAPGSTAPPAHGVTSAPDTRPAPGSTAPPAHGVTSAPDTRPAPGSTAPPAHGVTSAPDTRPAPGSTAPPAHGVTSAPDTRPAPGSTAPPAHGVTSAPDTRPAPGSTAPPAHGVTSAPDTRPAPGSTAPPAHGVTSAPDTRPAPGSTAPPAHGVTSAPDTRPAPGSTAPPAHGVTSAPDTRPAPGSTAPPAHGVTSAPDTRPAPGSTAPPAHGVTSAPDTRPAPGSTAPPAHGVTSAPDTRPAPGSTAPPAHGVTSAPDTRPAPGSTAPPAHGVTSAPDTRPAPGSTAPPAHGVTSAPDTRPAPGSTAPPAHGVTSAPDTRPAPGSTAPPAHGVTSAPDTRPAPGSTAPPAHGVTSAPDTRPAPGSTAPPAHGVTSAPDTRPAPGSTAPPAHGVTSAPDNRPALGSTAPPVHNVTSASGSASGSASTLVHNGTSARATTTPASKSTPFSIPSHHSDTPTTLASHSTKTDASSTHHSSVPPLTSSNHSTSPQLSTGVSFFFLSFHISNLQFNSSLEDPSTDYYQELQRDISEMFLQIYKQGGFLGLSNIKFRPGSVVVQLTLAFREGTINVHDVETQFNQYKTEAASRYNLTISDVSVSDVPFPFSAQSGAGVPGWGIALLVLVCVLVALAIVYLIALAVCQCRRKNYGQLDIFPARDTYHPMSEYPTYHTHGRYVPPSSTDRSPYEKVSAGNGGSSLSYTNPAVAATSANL

B1: Fab 14.6.20 (Fab, V domains shown)
VH: EVQLVQSGGGLVQPGGSLRLSCTASGFIFNNYAMSWVRQAPGKGLEWVSGISTGGSSTYHADSVKGRFTISRDNFKKTLWLQMNSLTPEDAAVYYCARHANFWNGYLEKGAIDYWGQGTLVTVSS
VL: ELQMTQSPSTLSASVGDRVTITCRASHSVSGWLAWYQQKPGKAPKLLSYEPSSLESGVPSRFSGSGSGTEFTLTISSLQPEDFATYYCQESYRITSLTFGGGTKVETRR
notes: also called Fab clone 14.6.20
Take B1: the binding result is listed as “no binding”.
